We go through 36 molecules from patent publication US20230242902A1, “A HIGHLY ERROR-PRONE […] R[…] FOR TARGETED CONTINUOUS EVOLUTION IN VIVO” (The Regents of the University of California, priority 2017, published 2023).

Positions count from the first letter of the chain named. Numbers in names are those of the source.

The assay has as its system p1. Kind of assay: p1 copy number by p1-encoded mKate2 fluorescence. The assay is classed as cell-based, S. cerevisiae. To be noted: OR-Y24, measured in triplicate. In a few lines:
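p1 copy number came from mKate2 fluorescence of saturated OR-Y24 cultures (triplicates, regrown from 1:10,000), read by flow cytometry and converted through a linear curve calibrated by qPCR (LEU2 against genomic LEU3). For small-scale tests, OD600-normalized plate-reader fluorescence (588/633 nm) was scaled to a w.t. TP-DNAP1 control.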

B1: R692F, T706E: TP-DNAP1 variant (protein)
chain: MDYKDKALNDLRNVYADFDSLPLDFRQILIKDRATLLQKEDVEKKILERQEDAKKYAEYLKQSEIPERISLPNIKRHKGVSISFEETSEDMVLEPRPFIFDGLNIRCFRRETIFSLKNKILNMVKESSSFKNVSRQSVSFMYFKIFNKGKVIASTKSVNIYEDKIDERLEDLCNNFDDVLKKIIDVTYGYESLFVSETYSYVIFYAKSIYFPQPRCVNNWGNNIPNILTFDSFKLFTANKNNVSCIKQCSRFLWQKDFNTLEEMIEYKNGNICIVTPQLHINDVRDIKSFNDIRLYSESPIKTFSVIDNTITYLFYFKEHLGVIFNITKSRHDRRVTKFSPLSKFSDVKNITVCFDIESYFDPEKESNQVNIPFICCASIIYNKVIGNIVDFEGRDCVAQMIEYVVDICGELNISSVELIAHNGGGYDFHYILSSMYNPAAIKNILIRNNSFISFNFAHDGVKFSVKDSYSFLLCSLANASKAFLNEETFKKTDFPHHDLKTADDLYKVYKEWSSVNTEINHVVEKEKLLITSEHIVNFTKNDKSKTLIEWSKDYCRNDVLVLSKVWLEFKNAVEDIFNCELVDQTMTLAGLSYKLFQANMPFDVELRHPNKEDYFNMREALIGGRCISVNGIYKDVLCLDVKSLYPASMAFYDQPYGSFKRVSSRPKDELGIYYVRVTPNRNNKSNFFPIFSHNKITYNNFEESEYIAWYTNVDIDIGLSEGHNIEYIPFDSYGNIGYSWSKKGKIFEKYIKDVLYKLKIKYEKQNNKVKRNVIKIIMNSLWGKFAQKWVNFEYFIKSEDDIDFESEEAYKIWDTDFMLIKKIKESTYSSKPIQNGVFTLSWARYHMKSIWDAGAKEGAECIYSDTDSIFVHKEHFKKNAKFMLNGLKVPIIGSEVGQLELECEFDKLLCAGKKQYMGFYTYFQDGKPCIKEKKRFKGIPSNYIIPELYAHLLSGADKEAKIQFLKFRREWGSVKGYIENKTVKAT
Consider B1, for which the “Mean fold-increase over w.t. (p1 copy number)” value (“Mean fold-increase” for short) is on record as 1.89 fold.

B2: E704G: TP-DNAP1 variant (protein)
chain: B1 chain with F692R, E704G, E706T
With B2, the “Mean fold-increase” value turned out to be 1.75 fold.

B3: T698L: TP-DNAP1 variant (protein)
chain: B1 chain with F692R, T698L, E706T
In the case of B3, the “Mean fold-increase” value is reported as 2 fold.

B4: S693R: TP-DNAP1 variant (protein)
chain: B1 chain with F692R, S693R, E706T
For the molecule B4, the “Mean fold-increase” value is listed as 2.09 fold.

B5: N695F: TP-DNAP1 variant (protein)
chain: B1 chain with F692R, N695F, E706T
Regarding B5, the “Mean fold-increase” value came out at 1.44 fold.

B6: K696T: TP-DNAP1 variant (protein)
chain: B1 chain with F692R, K696T, E706T
Regarding B6, the “Mean fold-increase” value turned out to be 2.12 fold.

B7: E703R: TP-DNAP1 variant (protein)
chain: B1 chain with F692R, E703R, E706T
Consider B7, for which the “Mean fold-increase” value stood at 1.84 fold.

B8: S693Q: TP-DNAP1 variant (protein)
chain: B1 chain with F692R, S693Q, E706T
For B8, the “Mean fold-increase” value worked out at 2.22 fold.

B9: E298H: TP-DNAP1 variant (protein)
chain: B1 chain with E298H, F692R, E706T
As for B9, the “Mean fold-increase” value was determined as 2.57 fold.

B10: E704N: TP-DNAP1 variant (protein)
chain: B1 chain with F692R, E704N, E706T
Regarding B10, the “Mean fold-increase” value is on record as 1.85 fold.

B11: K696Y: TP-DNAP1 variant (protein)
chain: B1 chain with F692R, K696Y, E706T
Turning to B11, the “Mean fold-increase” value worked out at 1.49 fold.

B12: N695E: TP-DNAP1 variant (protein)
chain: B1 chain with F692R, N695E, E706T
As to B12, the “Mean fold-increase” value is listed as 2.34 fold.

B13: R692V: TP-DNAP1 variant (protein)
chain: B1 chain with F692V, E706T
Turning to B13, the “Mean fold-increase” value is given as 2.29 fold.

B14: T698A: TP-DNAP1 variant (protein)
chain: B1 chain with F692R, T698A, E706T
Regarding B14, the “Mean fold-increase” value is given as 2.02 fold.

B15: S705R: TP-DNAP1 variant (protein)
chain: B1 chain with F692R, S705R, E706T
As to B15, the “Mean fold-increase” value was determined as 1.84 fold.

B16: N695S: TP-DNAP1 variant (protein)
chain: B1 chain with F692R, N695S, E706T
For B16, the “Mean fold-increase” value was determined as 1.82 fold.

B17: E704D: TP-DNAP1 variant (protein)
chain: B1 chain with F692R, E704D, E706T
For B17, the “Mean fold-increase” value turned out to be 1.89 fold.

B18: E704I: TP-DNAP1 variant (protein)
chain: B1 chain with F692R, E704I, E706T
As to B18, the “Mean fold-increase” value was found to be 1.35 fold.

B19: S705L: TP-DNAP1 variant (protein)
chain: B1 chain with F692R, S705L, E706T
B19: the “Mean fold-increase” value is 1.98 fold.

B20: E704K: TP-DNAP1 variant (protein)
chain: B1 chain with F692R, E704K, E706T
B20: the “Mean fold-increase” value came to 1.8 fold.

B21: K696G: TP-DNAP1 variant (protein)
chain: B1 chain with F692R, K696G, E706T
Consider B21, for which the “Mean fold-increase” value turned out to be 2.11 fold.

B22: E703W: TP-DNAP1 variant (protein)
chain: B1 chain with F692R, E703W, E706T
For B22, the “Mean fold-increase” value came out at 1.72 fold.

B23: E298R: TP-DNAP1 variant (protein)
chain: B1 chain with E298R, F692R, E706T
For the molecule B23, the “Mean fold-increase” value was 2.6 fold.

B24: N695Q: TP-DNAP1 variant (protein)
chain: B1 chain with F692R, N695Q, E706T
Consider B24, for which the “Mean fold-increase” value is reported as 1.68 fold.

B25: T698M: TP-DNAP1 variant (protein)
chain: B1 chain with F692R, T698M, E706T
As for B25, the “Mean fold-increase” value came out at 1.75 fold.

B26: H694I: TP-DNAP1 variant (protein)
chain: B1 chain with F692R, H694I, E706T
Turning to B26, the “Mean fold-increase” value is reported as 1.78 fold.

B27: K696C: TP-DNAP1 variant (protein)
chain: B1 chain with F692R, K696C, E706T
As to B27, the “Mean fold-increase” value came out at 1.87 fold.

B28: N695H: TP-DNAP1 variant (protein)
chain: B1 chain with F692R, N695H, E706T
Regarding B28, the “Mean fold-increase” value turned out to be 1.76 fold.

B29: K696S, E704V: TP-DNAP1 variant (protein)
chain: B1 chain with F692R, K696S, E704V, E706T
With B29, the “Mean fold-increase” value worked out at 1.86 fold.

B30: H694T: TP-DNAP1 variant (protein)
chain: B1 chain with F692R, H694T, E706T
As for B30, the “Mean fold-increase” value amounted to 1.92 fold.

B31: K696M: TP-DNAP1 variant (protein)
chain: B1 chain with F692R, K696M, E706T
Regarding B31, the “Mean fold-increase” value came to 1.71 fold.

B32: E298G: TP-DNAP1 variant (protein)
chain: B1 chain with E298G, F692R, E706T
In the case of B32, the “Mean fold-increase” value is reported as 2.64 fold.

B33: E703H: TP-DNAP1 variant (protein)
chain: B1 chain with F692R, E703H, E706T
Consider B33, for which the “Mean fold-increase” value amounted to 1.53 fold.

B34: E704M: TP-DNAP1 variant (protein)
chain: B1 chain with F692R, E704M, E706T
Regarding B34, the “Mean fold-increase” value came to 2.02 fold.

B35: E298G, S305F: TP-DNAP1 variant (protein)
chain: B1 chain with E298G, S305F, F692R, E706T
As to B35, the “Mean fold-increase” value was found to be 2.06 fold.

B36: R692W: TP-DNAP1 variant (protein)
chain: B1 chain with F692W, E706T
Consider B36, for which the “Mean fold-increase” value was 1.97 fold.
